Source: patent publication US20110250211A1 (INSTITUT PASTEUR, published 2011)
Positions count from the first letter of the chain named.

B1: VHH domain of SEQ ID NO: 3 fused in frame with the Ig CH2 domain and the His tag (VHH)
chain: DVQLRASGGGLVQPGGSLRLSCAASGFTFSNYAMYWLRQAPGKGIEWVSRIGPGGSHTEYADSVKGRFTISRDNAKNTLSLQMNSLKPEDTAVYYCAITQQGSGRGQETQVTVSSAAAAPELLGGPSVFIFPPKPKDVLSISGRPEVTCVVVDVGQEDPEVSFNWYIDGAEVRTANTRPKEEQFNSTYRVVSVLPIQHQDWLTGKEFKCKVNNKALPAPIEKTISKAKLEHHHHHH
notes: the sentence could be read otherwise; also called VHH-A10 fused with the CH2 domain
B2: VHH-B8 (VHH)
VHH: DVQLQVSGGGSVQPGGSLRLSCAAPGFTFSNYAMYWLRQAPGKGIEWVSRIGPGGSHTEYADSVKGRFAISRDNAKNTLSLQMNSLKPEDTAAYYCAITQQGSGRGRGTQVTVSSAAASLSTELEFGSELIPISMADVQLQVSGGGSVQPGGSLRLSCAASGFTFSNYAMYWLRQAPGKGIEWVSRIGPGGSHTEYADSVKGRFTISRDNAKNTLSLQMNSLKPEDTAVYYCAITQQGSGRGRGTQVTVSSAAALEHHHHHH
notes: One polypeptide entry
B3: VHH-E9 (VHH)
VHH: DVQLQVSGGGSVQPGGSLRLSCAASGFTFSNYAMYWLRQAPGKGIEWVSRIGPGGSHTEYADSVKGRFTISRDNAKNTLSLQMNSLKPEDTAVYYCAITQQGSGRGQGTQVTVSS
notes: Alpaca VHH with C-terminal His tag; also called anti-GFAP VHH-E9; native VHH-E9
B4: VHH-E3 (VHH)
VHH: B3 VHH with S25P, T69A, V93A, Q107R
notes: Alpaca VHH with C-terminal His tag; also called anti-GFAP VHH-E3
B5: VHH-E9 SS-free (VHH)
VHH: DVQLQVSGGGSVQPGGSLRLSSAASGFTFSNYAMYWLRQAPGKGIEWVSRIGPGGSHTEYADSVKGRFTISRDNAKNTLSLQMNSLKPEDTAVYYSAITQQGSGRGQGTQVTVSSAAALEHHHHHH
notes: also called cysteine-free derivative of VHH E9
B6: VHH-A10 (VHH)
VHH: B5 VHH with Q5R, V6A, S11L, S22C, S96C, G108E
notes: Alpaca VHH with C-terminal His tag, expressed in the E. coli periplasm from pET22; also called anti-GFAP VHH-A10; VHH-His

How the values were obtained:
[1] = target: T1, murine glial fibrillary acidic protein (GFAP) (mouse, UniProt P03995 1-430); test: immunohistochemistry on fixed, permeabilized brain sections
T1 construct: Endogenous protein of brain extracts, brain sections or live brain; also called GFAP in murine brain extracts; GFAP in mouse astrocytes

[2] = target: T2, human glial fibrillary acidic protein (GFAP) (human, UniProt P14136 1-432); test: immunohistochemistry on human brain paraffin sections
T2 construct: the endogenous protein in fixed human brain sections in the immunolabelling experiments; also called hGFAP
Description: Immunostaining of human brain tissue was performed on 5 μm thick paraffin sections. Sections were de-paraffinized in xylene, rehydrated through ethanol (100%, 96%, and 90%) and finally brought to water. They were incubated with 3% hydrogen peroxyde and 20% methanol, to quench for endogenous peroxydases, and washed in water. Non-specific binding was blocked by incubating the sections for 10 minutes in 2% bovine serum albumin in TBS plus 0.5% Tween.
The distribution of VHH-specific immunoreactivity in mouse and human brains sections were examined after aldehyde fixation and membranes permeabilization, using standard procedure for immunostaining. Immunohistochemistry experiments were performed with VHH-A10 (SEQ ID NO: 5) or VHH domain of SEQ ID NO: 3 fused in frame with the Ig CH2 domain and the His tag (SEQ ID NO: 29) were both used. With this construction, the signal could be amplified by using rabbit anti-alpaca Ig polyclonal antibodies as secondary antibodies, in turn labelled by an anti-rabbit goat polyclonal antibody. As previously reported (LAFAYE et al, 1995, above-cited), the results obtained were similar with the His-tagged antibody.

[3] = target: T1, murine glial fibrillary acidic protein …; test: Western blot of murine brain extracts
Description: Murine brain extracts were electrophoresed, immunoblotted and incubated with the VHH domains VHH-A10, -B8, -E3 and -E9.
Murine brain proteins (300 mg) were extracted in a potter with 600 μl of NuPage LDS sample buffer (Invitrogen) and kept for […] at 70° C. An aliquot was diluted 1:10 (v/v) with the same sample buffer then treated at 70° C. for 10 min. Following separation by polyacrylamide gel electrophoresis (PAGE) using NuPAGE Novex 4-12% Bis-tris gel (Invitrogen), semi-dry transfer onto Hybond-C (Amersham) and western blotting were carried out using the Xcell II blot module (Invitrogen). Prior to the immunochemical reaction, membranes were blocked in a 4% skimmed milk solution. […] Finally, peroxidase activity was visualized using a chemiluminescent kit (Amersham).

[4] = target: T2, human glial fibrillary acidic protein …; test: equilibrium competition ELISA in solution (Friguet et al.)
Description: (§1) The binding affinity of VHHs was determined as described by FRIGUET et al. (1985, J Immunol Methods, 77:305-319). Briefly, various concentrations of GFAP were incubated in solution overnight at 4° C. with a known quantity of VHH until equilibrium was reached. The VHH concentration had been determined by preliminary ELISA calibrations. 100 μl of solution was transferred to a well of a microtiter plate previously coated with GFAP and was incubated for 20 min at 4° C. The plates were washed with PBS-Tween 0.1%. VHHs were detected with rabbit anti-His tag antibodies (eBiosciences, San Diego, Calif.) followed by adding β-galactosidase-conjugated goat anti-rabbit Igs (Biosys, Compiegne, France) and 4-methylumbelliferyl β-D galactoside (Sigma Aldrich, Saint-Quentin Fallavier, France). Fluorescence was read at 460 nm, after excitation at 355 nm. KD was estimated from the slope of the regression curve obtained by plotting the reciprocal of the fraction of bound antibody versus the reciprocal of the molar concentration of antigen.

[5] = target: T2, human glial fibrillary acidic protein …; test: competition ELISA (Friguet) after heating 15 min at 75 C and cooling 20 min at 4 C
Description: as §1
The heat denaturation of VHH-E9 was adapted to the method described in OLICHON et al. (2007, BMC Biotechnol., 7:7). VHHs are re-suspended in PBS/NaCl 300 mM and are heated for 15 minutes at 75° C. then cooled down at 4° C. for 20 minutes. The binding affinity of VHHs was determined by ELISA as described in Example 1 above.

[6] = target: T2, human glial fibrillary acidic protein …; test: equilibrium competition ELISA in solution (Friguet et al.), GFAP-coated plate
Description: as §1

[7] = target: T2, human glial fibrillary acidic protein …; test: competition ELISA (Friguet) as in Example 1
Description: as §1

T2 sequence (P14136 whole entry): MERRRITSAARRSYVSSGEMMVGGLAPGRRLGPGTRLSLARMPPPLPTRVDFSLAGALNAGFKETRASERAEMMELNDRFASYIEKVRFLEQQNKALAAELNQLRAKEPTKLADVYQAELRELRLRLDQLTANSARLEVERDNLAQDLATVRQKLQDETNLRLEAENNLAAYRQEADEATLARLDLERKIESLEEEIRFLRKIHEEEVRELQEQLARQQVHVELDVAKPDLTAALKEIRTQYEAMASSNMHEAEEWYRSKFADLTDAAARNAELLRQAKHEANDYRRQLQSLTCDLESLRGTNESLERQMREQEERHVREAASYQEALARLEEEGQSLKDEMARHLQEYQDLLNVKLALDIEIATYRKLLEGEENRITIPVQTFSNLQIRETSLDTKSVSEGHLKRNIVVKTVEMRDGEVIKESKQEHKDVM
T1 sequence (P03995 whole entry): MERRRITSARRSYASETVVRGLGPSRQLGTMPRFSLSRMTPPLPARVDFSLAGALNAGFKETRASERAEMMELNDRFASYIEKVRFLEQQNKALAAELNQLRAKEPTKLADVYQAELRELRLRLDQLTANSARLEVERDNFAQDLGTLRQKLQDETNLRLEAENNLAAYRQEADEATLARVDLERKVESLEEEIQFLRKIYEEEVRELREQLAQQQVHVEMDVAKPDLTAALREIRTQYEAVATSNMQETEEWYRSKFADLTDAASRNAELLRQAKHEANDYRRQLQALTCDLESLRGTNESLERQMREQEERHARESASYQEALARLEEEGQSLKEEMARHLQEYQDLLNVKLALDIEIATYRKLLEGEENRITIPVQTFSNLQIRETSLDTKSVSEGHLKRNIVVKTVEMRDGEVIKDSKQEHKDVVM

Binder	binding result [3]	Kd [6] [nM]	other results
B1			binding result [1]: binds; binding result [2]: binds
B2	binds		Kd [4]: 5.2 nM
B3	binds	5.6	Kd [5]: 3.8 nM
B4	binds		
B5			Kd [7]: 12 nM; fold reduction of affinity against native VHH-E9 [7]: 2 fold
B6	binds	3.1	
